Source: article PMC11362306

Biological target: BLIP2 with azF at residue 41 (BLIP2^41azF)
Test: CNT-FET conductance (I-V); BLIP2 azF variant photochemically attached to p-type SWCNTs of a CNT-FET; BL (or BSA) added in DPBS, to 1.4 μM or stepwise; I-V curves, room temperature; also with 0.5% (w/v) BSA for TEM-1 on BLIP2^213azF

TEM-1 β-lactamase (from UniProt P62593 24-286) (enzyme)
conductance increase, fold lower than on BLIP2^213azF devices: 4 fold
